Source: article PMC1450329
Like-named read-outs stand apart in the source and are kept apart here.

Columns and labels:
Assay in all cases: fluorescence anisotropy
MutS-E38A = biological target: T1, MutS-E38A (Escherichia coli, UniProt P23909 1-853, E38A)
T1 sequence: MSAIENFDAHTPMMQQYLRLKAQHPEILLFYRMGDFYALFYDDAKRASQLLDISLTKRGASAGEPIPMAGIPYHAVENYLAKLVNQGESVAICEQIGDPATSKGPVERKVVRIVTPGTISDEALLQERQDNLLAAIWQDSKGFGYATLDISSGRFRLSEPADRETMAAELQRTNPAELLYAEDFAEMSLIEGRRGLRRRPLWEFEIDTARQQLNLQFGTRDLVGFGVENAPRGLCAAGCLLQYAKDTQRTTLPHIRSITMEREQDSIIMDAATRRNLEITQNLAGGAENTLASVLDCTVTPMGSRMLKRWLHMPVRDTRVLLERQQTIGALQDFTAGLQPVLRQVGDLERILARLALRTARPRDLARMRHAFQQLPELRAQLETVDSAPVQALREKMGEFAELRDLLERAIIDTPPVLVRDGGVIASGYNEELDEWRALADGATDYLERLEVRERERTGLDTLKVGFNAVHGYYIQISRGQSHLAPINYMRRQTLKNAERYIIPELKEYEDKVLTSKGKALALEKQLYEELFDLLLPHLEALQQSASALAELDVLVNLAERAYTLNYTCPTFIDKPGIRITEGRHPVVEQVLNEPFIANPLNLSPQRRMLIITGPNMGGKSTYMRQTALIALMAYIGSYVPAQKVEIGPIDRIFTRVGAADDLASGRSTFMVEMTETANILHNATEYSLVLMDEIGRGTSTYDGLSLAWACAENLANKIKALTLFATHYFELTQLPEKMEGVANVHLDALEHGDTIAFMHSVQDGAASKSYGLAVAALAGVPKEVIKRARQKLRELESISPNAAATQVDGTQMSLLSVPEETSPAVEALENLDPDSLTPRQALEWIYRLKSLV

MutS wild-type [1] = biological target: T2, MutS wild-type (Escherichia coli, UniProt P23909 1-853)
T2 sequence: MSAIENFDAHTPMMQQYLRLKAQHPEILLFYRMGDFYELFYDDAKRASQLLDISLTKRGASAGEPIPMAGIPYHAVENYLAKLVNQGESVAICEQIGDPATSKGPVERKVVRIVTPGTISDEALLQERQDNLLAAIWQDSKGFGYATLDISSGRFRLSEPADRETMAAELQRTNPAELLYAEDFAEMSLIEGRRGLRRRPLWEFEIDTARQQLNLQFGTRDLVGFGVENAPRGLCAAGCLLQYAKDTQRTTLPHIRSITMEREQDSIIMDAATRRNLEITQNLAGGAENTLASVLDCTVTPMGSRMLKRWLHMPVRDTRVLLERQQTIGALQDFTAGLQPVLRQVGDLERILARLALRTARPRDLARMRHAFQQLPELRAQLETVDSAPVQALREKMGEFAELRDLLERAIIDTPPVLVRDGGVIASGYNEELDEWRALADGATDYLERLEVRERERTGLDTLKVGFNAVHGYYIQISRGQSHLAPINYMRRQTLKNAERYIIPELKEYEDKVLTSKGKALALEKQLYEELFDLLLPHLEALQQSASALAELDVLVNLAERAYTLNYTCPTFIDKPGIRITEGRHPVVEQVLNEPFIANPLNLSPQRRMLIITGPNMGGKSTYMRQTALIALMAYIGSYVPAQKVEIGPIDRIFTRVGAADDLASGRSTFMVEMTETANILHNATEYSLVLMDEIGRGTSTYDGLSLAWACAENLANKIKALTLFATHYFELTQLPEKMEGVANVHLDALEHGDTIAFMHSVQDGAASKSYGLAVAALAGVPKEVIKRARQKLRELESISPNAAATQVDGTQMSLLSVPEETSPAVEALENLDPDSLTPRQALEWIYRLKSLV

MutS wild-type [2] = biological target: T2, MutS wild-type; remark: listed apart in the source

B1: CP-GpG/CT cisplatinated mismatch 30mer (dsDNA)
DNA 1: ACCTGTCTGGCAACACTGTCACCGTCGTAT
DNA 2: ATACGACGGTGACAGTGTTGCTAGACAGGT
modifications: cisplatin 1,2-GpG intrastrand cross-link at G9-G10 of strand 1
Q: Which results are given for B1?
A: Kd (MutS-E38A): 0.2 ± 0.069 µM; Kd (MutS wild-type [1]): 0.36 ± 0.046 µM

B2: G/T mismatch heteroduplex 30mer (dsDNA)
DNA 1: ACCTGTCTGGCAACACTGTCACCGTCGTAT
DNA 2: ATACGACGGTGACAGTGTTGCTAGACAGGT
Q: How did the Kd (MutS-E38A) turn out when B2 was run?
A: The Kd was 0.16 ± 0.058 µM.

Q: What about the Kd (MutS wild-type [1]) of the same binder?
A: Its Kd is 0.1 ± 0.008 µM.

B3: G/C homoduplex 30mer (dsDNA)
DNA 1: ACCTGTCTGGCAACACTGTCACCGTCGTAT
DNA 2: ATACGACGGTGACAGTGTTGCCAGACAGGT
Q: For B3, which Kd (MutS-E38A) is on record?
A: The Kd was 0.61 ± 0.058 µM.

Q: And the Kd (MutS wild-type [2])?
A: Its Kd is 1.08 ± 0.72 µM.

B4: CP-GpG/CC cisplatinated homoduplex 30mer (dsDNA)
DNA 1: ACCTGTCTGGCAACACTGTCACCGTCGTAT
DNA 2: ATACGACGGTGACAGTGTTGCCAGACAGGT
modifications: cisplatin 1,2-GpG intrastrand cross-link at G9-G10 of strand 1
Q: With B4 as the binder, how does the Kd (MutS-E38A) read?
A: The Kd was 0.6 ± 0.078 µM.

Q: And the Kd (MutS wild-type [2])?
A: Its Kd is 1.34 ± 0.58 µM.

Q: And the Kd (MutS wild-type [1])?
A: Its Kd is 1.3 ± 0.065 µM.
